Laboratory results taken from article PMC8102337.
No end group written: not given here.

What was measured:
[1] = molecular target: N-terminally biotinylated HSP27 IXI peptide 178…186 (F185H), unmodified (human); assay: SPR
[2] = molecular target: HSP27 alpha crystallin domain (ACD) (human); assay: ITC

Molecule	Kd [1] [µM]	Kd [2] [µM]
HSP27 alpha crystallin domain (ACD) (domain or fragment)	3.14	
EITIPVTHE (not fully specified) [HSP27 IXI peptide 178…186 (F185H), unmodified, without biotin]		14.3
